Numbered stars: 1 amine (or outer) side, 2 acyl side, 3 side chain; on linkers, the order of the positions; unused ones are H or OH. Bridge positions count the residues as written; N and C are the ends. Square brackets hold non-standard residues; d marks the D form. * marks the point of attachment. C20 diacid = O=C(O)CCCCCCCCCCCCCCCCCCC(=O)*; γGlu = O=C(O)[C@H](CCC(=O)[*:2])N[*:1]; Hyp = O=C(O)[C@@H]1C[C@@H](O)CN1; NMeI = CC[C@H](C)[C@H](NC)C(=O)O; Aad = N[C@@H](CCCC(=O)O)C(=O)O; hLys = NCCCCC[C@H](N)C(=O)O; Orn = NCCC[C@H](N)C(=O)O; Sar = CNCC(=O)O
What was measured:
[1] = molecular target: recombinant human calcitonin receptor (hCT-R) (human), P30988; experiment: cell-based or functional assay
[2] = molecular target: recombinant human amylin 3 receptor (hAMYR3) (human), P30988; experiment: cell-based or functional assay
recombinant human amylin 3 receptor (hAMYR3) (human), P30988, sequence (P30988 25-474, chain 1 of 2): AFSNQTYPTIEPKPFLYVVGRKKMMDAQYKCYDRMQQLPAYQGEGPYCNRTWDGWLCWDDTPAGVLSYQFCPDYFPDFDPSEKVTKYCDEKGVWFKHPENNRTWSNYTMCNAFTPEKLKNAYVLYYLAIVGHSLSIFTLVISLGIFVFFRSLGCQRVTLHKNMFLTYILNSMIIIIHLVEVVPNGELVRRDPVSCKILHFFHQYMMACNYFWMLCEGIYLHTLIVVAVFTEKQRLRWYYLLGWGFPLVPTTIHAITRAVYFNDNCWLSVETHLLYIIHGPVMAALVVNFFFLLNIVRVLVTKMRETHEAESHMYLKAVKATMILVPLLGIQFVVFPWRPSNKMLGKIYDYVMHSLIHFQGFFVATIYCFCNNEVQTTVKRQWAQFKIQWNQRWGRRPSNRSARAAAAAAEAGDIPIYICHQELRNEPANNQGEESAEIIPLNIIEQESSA
recombinant human amylin 3 receptor (hAMYR3) (human), P30988, sequence (O60896 24-148, chain 2 of 2, further chain): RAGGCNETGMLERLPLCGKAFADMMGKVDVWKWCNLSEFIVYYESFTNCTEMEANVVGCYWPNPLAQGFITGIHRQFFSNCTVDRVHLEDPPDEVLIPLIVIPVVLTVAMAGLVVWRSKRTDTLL

recombinant human calcitonin receptor (hCT-R) (human), P30988, sequence (P30988 25-474): as the sequence (P30988 25-474, chain 1 of 2) above

| Binder | hCT-R EC50 [nM] (cAMP formation, 1321N1 cells expressing hCT-R) [1] | hAMYR3 EC50 [nM] (cAMP formation, 1321N1 cells expressing hAMYR3) [2] |
| --- | --- | --- |
| {C20 diacid-γGlu}-RDGTATKATERLAHFLQRSSF[Sar]A[NMeI]LSSTEVGSNT[Hyp]-NH2 (lactam 2-7; SMILES CC[C@H](C)[C@@H](C(=O)N[C@@H](CC(C)C)C(=O)N[C@@H](CO)C(=O)N[C@@H](CO)C(=O)N[C@H](C(=O)N[C@@H](CCC(=O)O)C(=O)N[C@H](C(=O)NCC(=O)N[C@@H](CO)C(=O)N[C@@H](CC(N)=O)C(=O)N[C@H](C(=O)N1C[C@H](O)C[C@H]1C(N)=O)[C@@H](C)O)C(C)C)[C@@H](C)O)N(C)C(=O)[C@H](C)NC(=O)CN(C)C(=O)[C@H](Cc1ccccc1)NC(=O)[C@H](CO)NC(=O)[C@H](CO)NC(=O)[C@H](CCCNC(=N)N)NC(=O)[C@H](CCC(N)=O)NC(=O)[C@H](CC(C)C)NC(=O)[C@H](Cc1ccccc1)NC(=O)[C@H](Cc1c[nH]cn1)NC(=O)[C@H](C)NC(=O)[C@H](CC(C)C)NC(=O)[C@H](CCCNC(=N)N)NC(=O)[C@H](CCC(=O)O)NC(=O)[C@@H](NC(=O)[C@H](C)NC(=O)[C@@H]1CCCCNC(=O)C[C@H](NC(=O)[C@H](CCCNC(=N)N)NC(=O)CC[C@H](NC(=O)CCCCCCCCCCCCCCCCCCC(=O)O)C(=O)O)C(=O)NCC(=O)N[C@@H]([C@@H](C)O)C(=O)N[C@@H](C)C(=O)N[C@@H]([C@@H](C)O)C(=O)N1)[C@@H](C)O) [Compound 18] | 0.085 | 0.031 |
| {C20 diacid-γGlu}-RDGTAT[hLys]ATERLAHFLQRSSF[Sar]A[NMeI]LSSTEVGSNT[Hyp]-NH2 (lactam 2-7; SMILES CC[C@H](C)[C@@H](C(=O)N[C@@H](CC(C)C)C(=O)N[C@@H](CO)C(=O)N[C@@H](CO)C(=O)N[C@H](C(=O)N[C@@H](CCC(=O)O)C(=O)N[C@H](C(=O)NCC(=O)N[C@@H](CO)C(=O)N[C@@H](CC(N)=O)C(=O)N[C@H](C(=O)N1C[C@H](O)C[C@H]1C(N)=O)[C@@H](C)O)C(C)C)[C@@H](C)O)N(C)C(=O)[C@H](C)NC(=O)CN(C)C(=O)[C@H](Cc1ccccc1)NC(=O)[C@H](CO)NC(=O)[C@H](CO)NC(=O)[C@H](CCCNC(=N)N)NC(=O)[C@H](CCC(N)=O)NC(=O)[C@H](CC(C)C)NC(=O)[C@H](Cc1ccccc1)NC(=O)[C@H](Cc1c[nH]cn1)NC(=O)[C@H](C)NC(=O)[C@H](CC(C)C)NC(=O)[C@H](CCCNC(=N)N)NC(=O)[C@H](CCC(=O)O)NC(=O)[C@@H](NC(=O)[C@H](C)NC(=O)[C@@H]1CCCCCNC(=O)C[C@H](NC(=O)[C@H](CCCNC(=N)N)NC(=O)CC[C@H](NC(=O)CCCCCCCCCCCCCCCCCCC(=O)O)C(=O)O)C(=O)NCC(=O)N[C@@H]([C@@H](C)O)C(=O)N[C@@H](C)C(=O)N[C@@H]([C@@H](C)O)C(=O)N1)[C@@H](C)O) [Compound 19] | 0.028 | 0.006 |
| {C20 diacid-γGlu}-RDGTATKATERLAHFLQRSSF[Sar]A[NMeI]PSSTEVGSNT[Hyp]-NH2 (lactam 2-7; SMILES CC[C@H](C)[C@@H](C(=O)N1CCC[C@H]1C(=O)N[C@@H](CO)C(=O)N[C@@H](CO)C(=O)N[C@H](C(=O)N[C@@H](CCC(=O)O)C(=O)N[C@H](C(=O)NCC(=O)N[C@@H](CO)C(=O)N[C@@H](CC(N)=O)C(=O)N[C@H](C(=O)N1C[C@H](O)C[C@H]1C(N)=O)[C@@H](C)O)C(C)C)[C@@H](C)O)N(C)C(=O)[C@H](C)NC(=O)CN(C)C(=O)[C@H](Cc1ccccc1)NC(=O)[C@H](CO)NC(=O)[C@H](CO)NC(=O)[C@H](CCCNC(=N)N)NC(=O)[C@H](CCC(N)=O)NC(=O)[C@H](CC(C)C)NC(=O)[C@H](Cc1ccccc1)NC(=O)[C@H](Cc1c[nH]cn1)NC(=O)[C@H](C)NC(=O)[C@H](CC(C)C)NC(=O)[C@H](CCCNC(=N)N)NC(=O)[C@H](CCC(=O)O)NC(=O)[C@@H](NC(=O)[C@H](C)NC(=O)[C@@H]1CCCCNC(=O)C[C@H](NC(=O)[C@H](CCCNC(=N)N)NC(=O)CC[C@H](NC(=O)CCCCCCCCCCCCCCCCCCC(=O)O)C(=O)O)C(=O)NCC(=O)N[C@@H]([C@@H](C)O)C(=O)N[C@@H](C)C(=O)N[C@@H]([C@@H](C)O)C(=O)N1)[C@@H](C)O) [Compound 17] | 0.058 | 0.025 |
| {C20 diacid-γGlu}-RDGTATKATQRLAHFLQRSSF[Sar]A[NMeI]LSSTEVGSNT[Hyp]-NH2 (lactam 2-7; SMILES CC[C@H](C)[C@@H](C(=O)N[C@@H](CC(C)C)C(=O)N[C@@H](CO)C(=O)N[C@@H](CO)C(=O)N[C@H](C(=O)N[C@@H](CCC(=O)O)C(=O)N[C@H](C(=O)NCC(=O)N[C@@H](CO)C(=O)N[C@@H](CC(N)=O)C(=O)N[C@H](C(=O)N1C[C@H](O)C[C@H]1C(N)=O)[C@@H](C)O)C(C)C)[C@@H](C)O)N(C)C(=O)[C@H](C)NC(=O)CN(C)C(=O)[C@H](Cc1ccccc1)NC(=O)[C@H](CO)NC(=O)[C@H](CO)NC(=O)[C@H](CCCNC(=N)N)NC(=O)[C@H](CCC(N)=O)NC(=O)[C@H](CC(C)C)NC(=O)[C@H](Cc1ccccc1)NC(=O)[C@H](Cc1c[nH]cn1)NC(=O)[C@H](C)NC(=O)[C@H](CC(C)C)NC(=O)[C@H](CCCNC(=N)N)NC(=O)[C@H](CCC(N)=O)NC(=O)[C@@H](NC(=O)[C@H](C)NC(=O)[C@@H]1CCCCNC(=O)C[C@H](NC(=O)[C@H](CCCNC(=N)N)NC(=O)CC[C@H](NC(=O)CCCCCCCCCCCCCCCCCCC(=O)O)C(=O)O)C(=O)NCC(=O)N[C@@H]([C@@H](C)O)C(=O)N[C@@H](C)C(=O)N[C@@H]([C@@H](C)O)C(=O)N1)[C@@H](C)O) [Compound 16] | 0.043 | 0.035 |
| {C20 diacid-γGlu}-RDGTAT[Orn]ATERLA[Aad]FLQRSSF[Sar]A[NMeI]LSSTEVGSNT[Hyp]-NH2 (lactam 2-7; SMILES CC[C@H](C)[C@@H](C(=O)N[C@@H](CC(C)C)C(=O)N[C@@H](CO)C(=O)N[C@@H](CO)C(=O)N[C@H](C(=O)N[C@@H](CCC(=O)O)C(=O)N[C@H](C(=O)NCC(=O)N[C@@H](CO)C(=O)N[C@@H](CC(N)=O)C(=O)N[C@H](C(=O)N1C[C@H](O)C[C@H]1C(N)=O)[C@@H](C)O)C(C)C)[C@@H](C)O)N(C)C(=O)[C@H](C)NC(=O)CN(C)C(=O)[C@H](Cc1ccccc1)NC(=O)[C@H](CO)NC(=O)[C@H](CO)NC(=O)[C@H](CCCNC(=N)N)NC(=O)[C@H](CCC(N)=O)NC(=O)[C@H](CC(C)C)NC(=O)[C@H](Cc1ccccc1)NC(=O)[C@H](CCCC(=O)O)NC(=O)[C@H](C)NC(=O)[C@H](CC(C)C)NC(=O)[C@H](CCCNC(=N)N)NC(=O)[C@H](CCC(=O)O)NC(=O)[C@@H](NC(=O)[C@H](C)NC(=O)[C@@H]1CCCNC(=O)C[C@H](NC(=O)[C@H](CCCNC(=N)N)NC(=O)CC[C@H](NC(=O)CCCCCCCCCCCCCCCCCCC(=O)O)C(=O)O)C(=O)NCC(=O)N[C@@H]([C@@H](C)O)C(=O)N[C@@H](C)C(=O)N[C@@H]([C@@H](C)O)C(=O)N1)[C@@H](C)O) [Compound 20] | 0.009 | 0.003 |

Next, values leading:

| hCT-R EC50 [nM] (cAMP formation, 1321N1 cells expressing hCT-R) [1] | hAMYR3 EC50 [nM] (cAMP formation, 1321N1 cells expressing hAMYR3) [2] | Binder |
| --- | --- | --- |
| 0.474 | 0.051 | {C20 diacid-γGlu}-RDGTAT[Orn]ATERLA[Aad]FLTRSSF[Sar]A[NMeI]LSSTEVGSST[Hyp]-NH2 (lactam 2-7; SMILES CC[C@H](C)[C@@H](C(=O)N[C@@H](CC(C)C)C(=O)N[C@@H](CO)C(=O)N[C@@H](CO)C(=O)N[C@H](C(=O)N[C@@H](CCC(=O)O)C(=O)N[C@H](C(=O)NCC(=O)N[C@@H](CO)C(=O)N[C@@H](CO)C(=O)N[C@H](C(=O)N1C[C@H](O)C[C@H]1C(N)=O)[C@@H](C)O)C(C)C)[C@@H](C)O)N(C)C(=O)[C@H](C)NC(=O)CN(C)C(=O)[C@H](Cc1ccccc1)NC(=O)[C@H](CO)NC(=O)[C@H](CO)NC(=O)[C@H](CCCNC(=N)N)NC(=O)[C@@H](NC(=O)[C@H](CC(C)C)NC(=O)[C@H](Cc1ccccc1)NC(=O)[C@H](CCCC(=O)O)NC(=O)[C@H](C)NC(=O)[C@H](CC(C)C)NC(=O)[C@H](CCCNC(=N)N)NC(=O)[C@H](CCC(=O)O)NC(=O)[C@@H](NC(=O)[C@H](C)NC(=O)[C@@H]1CCCNC(=O)C[C@H](NC(=O)[C@H](CCCNC(=N)N)NC(=O)CC[C@H](NC(=O)CCCCCCCCCCCCCCCCCCC(=O)O)C(=O)O)C(=O)NCC(=O)N[C@@H]([C@@H](C)O)C(=O)N[C@@H](C)C(=O)N[C@@H]([C@@H](C)O)C(=O)N1)[C@@H](C)O)[C@@H](C)O) [Compound 22] |
| 0.037 | 0.01 | {C20 diacid-γGlu}-RDGTAT[Orn]ATERLA[Aad]FLQRSSF[Sar]A[NMeI]PSSTEVGSNT[Hyp]-NH2 (lactam 2-7; SMILES CC[C@H](C)[C@@H](C(=O)N1CCC[C@H]1C(=O)N[C@@H](CO)C(=O)N[C@@H](CO)C(=O)N[C@H](C(=O)N[C@@H](CCC(=O)O)C(=O)N[C@H](C(=O)NCC(=O)N[C@@H](CO)C(=O)N[C@@H](CC(N)=O)C(=O)N[C@H](C(=O)N1C[C@H](O)C[C@H]1C(N)=O)[C@@H](C)O)C(C)C)[C@@H](C)O)N(C)C(=O)[C@H](C)NC(=O)CN(C)C(=O)[C@H](Cc1ccccc1)NC(=O)[C@H](CO)NC(=O)[C@H](CO)NC(=O)[C@H](CCCNC(=N)N)NC(=O)[C@H](CCC(N)=O)NC(=O)[C@H](CC(C)C)NC(=O)[C@H](Cc1ccccc1)NC(=O)[C@H](CCCC(=O)O)NC(=O)[C@H](C)NC(=O)[C@H](CC(C)C)NC(=O)[C@H](CCCNC(=N)N)NC(=O)[C@H](CCC(=O)O)NC(=O)[C@@H](NC(=O)[C@H](C)NC(=O)[C@@H]1CCCNC(=O)C[C@H](NC(=O)[C@H](CCCNC(=N)N)NC(=O)CC[C@H](NC(=O)CCCCCCCCCCCCCCCCCCC(=O)O)C(=O)O)C(=O)NCC(=O)N[C@@H]([C@@H](C)O)C(=O)N[C@@H](C)C(=O)N[C@@H]([C@@H](C)O)C(=O)N1)[C@@H](C)O) [Compound 21] |

— patent US20180071366A1
